Test results as given in US20190040153A1 (Novartis, published 2019).

T1: human β-klotho (soluble, recombinant) (human, UniProt Q86Z14 53-997, limits assumed)
T1 construct: also called recombinant human β-klotho; beta-klotho
T1 sequence: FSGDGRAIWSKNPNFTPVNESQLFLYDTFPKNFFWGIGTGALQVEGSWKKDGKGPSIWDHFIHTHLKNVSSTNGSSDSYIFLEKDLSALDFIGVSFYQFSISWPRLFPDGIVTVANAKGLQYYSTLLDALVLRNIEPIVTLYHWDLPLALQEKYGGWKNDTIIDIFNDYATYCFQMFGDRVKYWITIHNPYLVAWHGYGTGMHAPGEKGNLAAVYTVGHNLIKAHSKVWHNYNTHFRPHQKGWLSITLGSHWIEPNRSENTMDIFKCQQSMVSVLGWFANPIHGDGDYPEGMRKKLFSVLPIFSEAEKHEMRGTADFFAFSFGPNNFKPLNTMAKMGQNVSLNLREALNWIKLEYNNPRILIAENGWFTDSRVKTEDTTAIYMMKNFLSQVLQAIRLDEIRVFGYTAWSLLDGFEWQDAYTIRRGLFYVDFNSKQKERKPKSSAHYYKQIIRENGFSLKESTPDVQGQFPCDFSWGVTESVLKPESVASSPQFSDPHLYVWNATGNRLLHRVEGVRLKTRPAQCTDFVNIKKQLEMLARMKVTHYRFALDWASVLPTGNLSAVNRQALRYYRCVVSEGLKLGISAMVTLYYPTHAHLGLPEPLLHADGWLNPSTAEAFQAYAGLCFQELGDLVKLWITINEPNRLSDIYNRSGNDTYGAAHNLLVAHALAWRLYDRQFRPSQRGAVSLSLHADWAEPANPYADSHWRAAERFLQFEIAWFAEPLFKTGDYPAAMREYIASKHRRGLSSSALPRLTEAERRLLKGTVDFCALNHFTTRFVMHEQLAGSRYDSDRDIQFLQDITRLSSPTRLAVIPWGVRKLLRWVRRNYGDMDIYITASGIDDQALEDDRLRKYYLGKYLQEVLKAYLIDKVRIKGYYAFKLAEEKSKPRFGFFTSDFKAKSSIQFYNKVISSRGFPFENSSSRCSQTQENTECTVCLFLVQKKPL


What was measured:
[1] = target: T1, human β-klotho (soluble, recombinant); test: Biacore kinetics; IgG captured by anti-human Fc, human β-klotho as analyte
Method: Binding affinities of antibodies were determined using Biacore kinetic analysis. A Series S Sensor Chip CMS (GE Healthcare, Cat. No. BR-1005-30) was equilibrated to ambient temperature for approximately 30 minutes The system was primed with 1×HBS-EP+ buffer (10×soln, GE Healthcare, Cat. No. BR-1006-69) and the chip was loaded into the Biacore instrument. The chip was normalized using BIAnormalizing (GE Healthcare, Cat. No. BR-1006-51) solution and the chip was conditioned with 50 mM NaOH using a flow rate of 60 μL/minute for all flow paths. The 30 second injection was repeated three times with a wait time of 60 seconds. 10 mM sodium acetate pH 5.0 was injected at 60 μL/minute for 120 seconds and repeated twice. After a new cycle was started for immobilizing the anti-human IgG Fc using the Human Antibody Capture Kit (GE Healthcare, Cat. No. BR-1008-39). The anti-human Fc Ab was diluted to 50 μg/mL in immobilization buffer (10 mM sodium acetate pH 5.0). The amine coupling reagents were mixed 1:1 (EDC and NHS) and injected for 7 minutes at 10 μL/minute. Then anti-human Fc Ab was injected for 6 minutes at 10 μL/minute. Lastly ethanolamine was injected for 7 minutes at 10 μL/minute with a wait time of 60 seconds. This should result in immobilization of approximately 8000-10000 RU. Then we performed test injections for an Rmax of 10 RUs (capture levels=˜28 RUs) for NOV004, NOV005 and NOV006. This was done using a flow rate of […] and a 3 M MgCl₂ regeneration buffer. Each flow cell was evaluated each time due to changes in chip surface, affinity of IgGs, IgG protein quality and differences in dilutions. We started with an IgG concentration of 0.5 ug/mL and increased (or decreased) the concentration depending on the results from the sample injections. […] After capturing parameters were determined for each antibody in each flow cell, human β-klotho at various concentrations was passed over the chip and kₐ (1/Ms), kd (1/s), KD (M), and Rmax (RU) were calculated by Biacore kinetics.
In vitro work was done to show the binding and cell activity properties of NOV004, NOV005, and NOV006. […]

[2] = target: cynomolgus monkey FGFR1c_β-klotho receptor complex (on HEK293 cells) (cynomolgus monkey; human, UniProt A0A2K5WB58 1-1044; P11362 22-822); test: cell-based or functional assay
[3] = target: human FGFR1c_β-klotho receptor complex (on HEK293 cells) (human, UniProt P11362 22-822); test: cell-based or functional assay
Chain of human FGFR1c_β-klotho receptor complex (on HEK293 cells) (chain, as listed by the source, chain 1 of 2): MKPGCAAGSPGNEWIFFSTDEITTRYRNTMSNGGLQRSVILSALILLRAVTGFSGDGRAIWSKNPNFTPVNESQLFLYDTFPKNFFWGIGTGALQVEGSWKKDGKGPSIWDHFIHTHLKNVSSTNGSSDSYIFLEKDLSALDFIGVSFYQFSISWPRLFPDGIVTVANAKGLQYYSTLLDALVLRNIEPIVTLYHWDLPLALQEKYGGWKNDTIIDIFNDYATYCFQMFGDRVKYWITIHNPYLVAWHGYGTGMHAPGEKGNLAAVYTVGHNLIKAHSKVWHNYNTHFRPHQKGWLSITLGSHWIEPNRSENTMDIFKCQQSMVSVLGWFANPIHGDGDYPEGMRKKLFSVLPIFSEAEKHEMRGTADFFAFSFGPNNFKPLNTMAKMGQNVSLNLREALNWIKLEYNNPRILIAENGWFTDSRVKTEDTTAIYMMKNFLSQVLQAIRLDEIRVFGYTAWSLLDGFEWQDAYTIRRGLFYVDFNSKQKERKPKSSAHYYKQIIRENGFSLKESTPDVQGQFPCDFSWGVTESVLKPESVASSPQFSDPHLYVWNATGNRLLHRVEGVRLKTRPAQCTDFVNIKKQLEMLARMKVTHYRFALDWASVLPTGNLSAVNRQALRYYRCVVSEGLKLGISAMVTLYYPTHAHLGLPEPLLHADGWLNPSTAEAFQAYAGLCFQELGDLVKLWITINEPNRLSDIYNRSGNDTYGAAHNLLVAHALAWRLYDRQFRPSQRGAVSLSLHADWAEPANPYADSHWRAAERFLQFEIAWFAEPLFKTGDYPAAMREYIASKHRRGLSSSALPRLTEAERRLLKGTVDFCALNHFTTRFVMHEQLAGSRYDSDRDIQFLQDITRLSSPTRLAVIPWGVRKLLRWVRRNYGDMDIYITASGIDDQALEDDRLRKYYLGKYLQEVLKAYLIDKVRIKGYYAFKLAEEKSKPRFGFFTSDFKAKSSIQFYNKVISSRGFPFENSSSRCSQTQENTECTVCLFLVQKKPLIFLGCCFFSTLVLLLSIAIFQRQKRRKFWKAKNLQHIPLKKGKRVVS
Chain of human FGFR1c_β-klotho receptor complex (on HEK293 cells) (P11362 22-822, chain 2 of 2): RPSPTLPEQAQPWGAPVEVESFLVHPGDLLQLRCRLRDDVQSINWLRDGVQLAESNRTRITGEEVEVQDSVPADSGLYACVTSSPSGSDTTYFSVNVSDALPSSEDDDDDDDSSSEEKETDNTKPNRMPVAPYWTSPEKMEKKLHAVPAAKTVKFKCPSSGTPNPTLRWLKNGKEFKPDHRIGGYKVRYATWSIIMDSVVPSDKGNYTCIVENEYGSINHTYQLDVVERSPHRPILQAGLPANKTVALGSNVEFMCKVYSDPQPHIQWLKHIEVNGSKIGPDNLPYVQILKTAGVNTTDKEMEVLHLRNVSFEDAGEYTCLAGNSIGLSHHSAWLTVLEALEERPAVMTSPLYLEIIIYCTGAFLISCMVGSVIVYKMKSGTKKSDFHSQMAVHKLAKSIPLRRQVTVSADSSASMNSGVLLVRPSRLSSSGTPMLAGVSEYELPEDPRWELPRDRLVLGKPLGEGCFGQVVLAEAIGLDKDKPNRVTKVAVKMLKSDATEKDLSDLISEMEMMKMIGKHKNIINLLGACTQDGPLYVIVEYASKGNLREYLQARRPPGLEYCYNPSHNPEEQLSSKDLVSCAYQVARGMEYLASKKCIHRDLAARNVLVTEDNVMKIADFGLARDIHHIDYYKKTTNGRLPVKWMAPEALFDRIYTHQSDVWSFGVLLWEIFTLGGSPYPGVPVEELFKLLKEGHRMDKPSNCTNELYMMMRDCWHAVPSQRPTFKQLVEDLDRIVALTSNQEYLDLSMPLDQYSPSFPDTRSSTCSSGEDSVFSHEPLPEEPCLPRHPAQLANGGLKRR

Chain of cynomolgus monkey FGFR1c_β-klotho receptor complex (on HEK293 cells) (chain, as listed by the source, chain 1 of 2): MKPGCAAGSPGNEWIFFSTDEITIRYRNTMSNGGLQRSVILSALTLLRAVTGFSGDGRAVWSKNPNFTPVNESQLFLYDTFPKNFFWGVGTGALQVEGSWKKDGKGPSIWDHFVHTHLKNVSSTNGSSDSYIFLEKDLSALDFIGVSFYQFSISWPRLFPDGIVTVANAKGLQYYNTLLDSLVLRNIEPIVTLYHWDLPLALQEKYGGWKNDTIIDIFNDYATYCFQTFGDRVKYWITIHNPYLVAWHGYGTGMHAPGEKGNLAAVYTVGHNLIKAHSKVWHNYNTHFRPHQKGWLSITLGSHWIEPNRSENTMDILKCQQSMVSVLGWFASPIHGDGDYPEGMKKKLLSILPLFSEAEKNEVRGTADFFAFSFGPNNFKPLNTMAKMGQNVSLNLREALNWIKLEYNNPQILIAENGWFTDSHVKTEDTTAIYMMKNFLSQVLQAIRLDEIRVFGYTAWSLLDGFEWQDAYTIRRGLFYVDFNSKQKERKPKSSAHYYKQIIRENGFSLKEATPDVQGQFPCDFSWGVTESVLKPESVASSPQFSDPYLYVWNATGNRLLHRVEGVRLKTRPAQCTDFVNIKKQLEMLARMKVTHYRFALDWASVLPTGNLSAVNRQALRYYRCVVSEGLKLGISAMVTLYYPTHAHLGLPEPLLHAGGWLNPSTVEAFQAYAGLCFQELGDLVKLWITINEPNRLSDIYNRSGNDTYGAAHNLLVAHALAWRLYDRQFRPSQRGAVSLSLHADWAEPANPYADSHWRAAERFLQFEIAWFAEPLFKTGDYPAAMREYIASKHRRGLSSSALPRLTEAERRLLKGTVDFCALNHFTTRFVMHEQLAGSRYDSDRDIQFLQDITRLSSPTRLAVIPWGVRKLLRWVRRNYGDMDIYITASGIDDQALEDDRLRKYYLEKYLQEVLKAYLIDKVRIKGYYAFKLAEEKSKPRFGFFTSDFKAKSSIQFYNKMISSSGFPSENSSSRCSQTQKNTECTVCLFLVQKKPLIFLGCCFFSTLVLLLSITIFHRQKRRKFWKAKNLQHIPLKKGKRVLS
Chain of cynomolgus monkey FGFR1c_β-klotho receptor complex (on HEK293 cells) (P11362 22-822, chain 2 of 2): as the sequence (P11362 22-822, chain 2 of 2) above

| Binder | Kd [1] [nM] | pERK activation EC50 [2] [nM] | pERK activation EC50 [3] [nM] |
| --- | --- | --- | --- |
| NOV004 (antibody, human IgG1, kappa, V domains shown, Humanized mAb derived from mouse hybridoma 127F19) VH: EVQLVESGGGLVKPGGSLRLSCAVSGYSITSGYTWHWVRQAPGKGLEWLSYIHYSVYTNYNPSVKGRFTISRDTAKNSFYLQMNSLRAEDTAVYYCARRTTSLERYFDVWGQGTLVTVSS VL: DIQMTQSPSSLSASVGDRVTITCQASQDISNYLNWYQQKPGKAPKLLIYYTSRLQSGVPSRFTGSGSGADYTFTISSLQPEDIATYFCQQGNTLPYTFGQGTKLEIKR | ~0.3 | ~20 | ~3 |
| NOV005 (antibody, human IgG1, kappa, V domains shown, Humanized mAb derived from mouse hybridoma 127F19) VH: QVQLQESGPGLVKPSQTLSLTCTVSGYSITSGYTWHWIRQHPGKGLEWIGYIHYSVYTNYNPSLKSRVTISRDTSKNQFSLKLSSVTAADTAVYYCARRTTSLERYFDVWGQGTLVTVSS VL: DIQMTQSPSSLSASVGDRVTITCQASQDISNYLNWYQQKPGKAPKLLIYYTSRLQSGVPSRFSGSGSGADYTFTISSLQPEDIATYFCQQGNTLPYTFGQGTKLEIKR | ~0.3 | ~16 | ~3 |
| NOV006 (antibody, human IgG1, kappa, V domains shown, Humanized mAb derived from mouse hybridoma 127F19) VH: QVQLQESGPGLVKPSQTLSLTCTVSGYSITSGYTWHWIRQHPGKGLEWIGYIHYSVYTNYNPSLKSRVTISRDTSKNQFSLKLSSVTAADTAVYYCARRTTSLERYFDVWGQGTLVTVSS VL: EIVMTQSPATLSLSPGERATLSCRASQDISNYLNWYQQKPGQAPRLLIYYTSRLQSGIPARFSGSGSGADYTLTISSLQPEDFAVYFCQQGNTLPYTFGQGTKLEIKR | ~0.4 | ~18 | ~4 |
